According to patent US20250282866A1 (VIGIL NEUROSCIENCE, published 2025):

T1: human TREM2 (human, UniProt Q9NZC2 19-174, limits assumed)
T1 construct: also called triggering receptor expressed on myeloid cells 2
T1 sequence: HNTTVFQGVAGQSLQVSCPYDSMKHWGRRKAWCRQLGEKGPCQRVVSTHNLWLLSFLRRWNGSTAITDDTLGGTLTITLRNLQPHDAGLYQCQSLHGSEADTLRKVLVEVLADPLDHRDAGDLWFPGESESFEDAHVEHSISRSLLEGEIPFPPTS


Key:
human TREM2 [1] = target: T1, human TREM2; experiment: 2nd screen 2 nM
human TREM2 [2] = target: T1, human TREM2; experiment: 2nd screen 10 nM
human TREM2 [3] = target: T1, human TREM2; experiment: 1st screen (110 nM or 10 nM)

Row | Binder | Binding Signal (fold over 6E7 Parental antibody) (human TREM2 [1]) [fold] | Binding Signal (fold over 6E7 Parental antibody) (human TREM2 [2]) [fold] | Binding Signal (fold over 6E7 Parental antibody) (human TREM2 [3]) [fold]
1 | V26 (antibody, V domains shown) VH: EVQLVQSGAEVKKPGESLKISCKGSGYSFTSYWIGWVRQMPGKGLEWMGTIYPGDSDTRYSPSFQGQVTISADKSISTAYLQWSSLKASDTAMYFCARQRTMYYDSSDYFDAWGQGTLVTVSS VL: DIQMTQSPSSVSASVGDRVTITCRASQGISSWLAWYQQKPGKAPKLLIYAASSLQRGVPSRFSGSGSGTDFTLTISSLQPEDFATYFCQQADSYPRTFGQGTKLEIK | 2.83 | 3.47 | 3.57
2 | V39 (antibody, V domains shown) VH: EVQLVQSGAEVKKPGESLKISCKGSGYSFGSYWIAWVRQMPGKGLEWMGIIYPGDSDTRYNPSFQGQVTISADKSISTAYLQWSSLKASDTAMYFCARGRTFYYDSSDYFDYWGQGTLVTVSS VL: DIQMTQSPSSVSASVGDRVTITCRASQGISSWLAWYQQKPGKAPKLLIYAASSLVNGVPSRFSGSGSGTDFTLTISSLQPEDFATYFCQQADSSPRTFGQGTKLEIK | 5.11 | 5.81 | 6.15
3 | V41 (antibody, V domains shown) VH: EVQLVQSGAEVKKPGESLKISCKGSGYSFTSYWIAWVRQMPGKGLEWMGTIYPGDSDTRYSPSFQGQVTISADKSISTAYLQWSSLKASDTAMYFCARQRTFYYDSSDYFDYWGQGTLVTVSS VL: DIQMTQSPSSVSASVGDRVTITCRASQGISSWLAWYQQKPGKAPKLLIYAASSLQNGVPSRFSGSGSGTDFTLTISSLQPEDFATYFCQQADSFPRTFGQGTKLEIK | 0.58 | 1.72 | 1.74
4 | V28 (antibody, V domains shown) VH: EVQLVQSGAEVKKPGESLKISCKGSGYSFQSYWIAWVRQMPGKGLEWMGTIYPGDSDTRYSPSFQGQVTISADKSISTAYLQWSSLKASDTAMYFCARQRTFFYDSSDYFDYWGQGTLVTVSS VL: DIQMTQSPSSVSASVGDRVTITCRASQGISSWLAWYQQKPGKAPKLLIYAASSLQSGVPSRFSGSGSGTDFTLTISSLQPEDFATYFCQQADSLPRTFGQGTKLEIK | 2.63 | 3.61 | 3.08
5 | V36 (antibody, V domains shown) VH: EVQLVQSGAEVKKPGESLKISCKGSGYSFTSYWLAWVRQMPGKGLEWMGIIYPGDSDTRYSPSFQGQVTISADKSISTAYLQWSSLKASDTAMYFCARSRTFYYDSSDYFDYWGQGTLVTVSS VL: DIQMTQSPSSVSASVGDRVTITCRASQGISSWLAWYQQKPGKAPKLLIYAASSRQNGVPSRFSGSGSGTDFTLTISSLQPEDFATYFCQQADSYPRTFGQGTKLEIK | 4 | 3.44 | 3.38
6 | V38 (antibody, V domains shown) VH: EVQLVQSGAEVKKPGESLKISCKGSGYSFGSYWIAWVRQMPGKGLEWMGIIYPGDSDVRYSPSFQGQVTISADKSISTAYLQWSSLKASDTAMYFCARQRTFYYDSSDYFDYWGQGTLVTVSS VL: DIQMTQSPSSVSASVGDRVTITCRASQGISSWLAWYQQKPGKAPKLLIYAASSRQNGVPSRFSGSGSGTDFTLTISSLQPEDFATYFCQQADSHPRTFGQGTKLEIK | 3.44 | 4.36 | 4.34
7 | V27 (antibody, V domains shown) VH: EVQLVQSGAEVKKPGESLKISCKGSGYSFTSYWIAWVRQMPGKGLEWMGIIYPGDSDTRYAPSFQGQVTISADKSISTAYLQWSSLKASDTAMYFCVRSRTFYYDSSDYFDYWGQGTLVTVSS VL: DIQMTQSPSSVSASVGDRVTITCRASQGISSWLAWYQQKPGKAPKLLIYAASSLQRGVPSRFSGSGSGTDFTLTISSLQPEDFATYFCQQADSFPRTFGQGTKLEIK | 5.67 | 5.69 | 5.5
8 | V40 (antibody, V domains shown) VH: EVQLVQSGAEVKKPGESLKISCKGSGYSFGSYWIAWVRQMPGKGLEWMGIIYPGDSDVRYSPSFQGQVTISADKSISTAYLQWSSLKASDTAMYFCARQRTFYYDSSDYSDYWGQGTLVTVSS VL: DIQMTQSPSSVSASVGDRVTITCRASQGISSWLAWYQQKPGKAPKLLIYAASSLQLGVPSRFSGSGSGTDFTLTISSLQPEDFATYFCQQADRFPRTFGQGTKLEIK | 3.41 | 4.16 | 4.48
9 | V37 (antibody, V domains shown) VH: EVQLVQSGAEVKKPGESLKISCKGSGYSHTSYWIAWVRQMPGKGLEWMGIIYPGDSDTRYSPSFAGQVTISADKSISTAYLQWSSLKASDTAMYFCARSRTFYYDSSDYFDYWGQGTLVTVSS VL: DIQMTQSPSSVSASVGDRVTITCRASQGISSWLAWYQQKPGKAPKLLIYAASSLQWGVPSRFSGSGSGTDFTLTISSLQPEDFATYFCQQADSYPRTFGQGTKLEIK | 3.69 | 3.49 | 3.46
10 | V29 (antibody, V domains shown) VH: EVQLVQSGAEVKKPGESLKISCKGSGYSFKSYWIAWVRQMPGKGLEWMGIIYPGDSDTRYSPSFQGQVTISADKSISTAYLQWSSLKASDTAMYFCARQRTFYYDSSDYFDYWGQGTLVTVSS VL: DIQMTQSPSSVSASVGDRVTITCRASQGISSWLAWYQQKPGKAPKLLIYAASSLQNGVPSRFSGSGSGTDFTLTISSLQPEDFATYFCQQADSFPRTFGQGTKLEIK | 0.84 | 1.67 | 1.53

Other lines, results leading:

Row | Binding Signal (fold over 6E7 Parental antibody) (human TREM2 [1]) [fold] | Binding Signal (fold over 6E7 Parental antibody) (human TREM2 [2]) [fold] | Binding Signal (fold over 6E7 Parental antibody) (human TREM2 [3]) [fold] | Binder
11 | 1.78 | 3.09 | 3 | V52 (antibody, V domains shown) VH: EVQLVQSGAEVKKPGESLKISCKGSGYSFESYWIAWVRQMPGKGLEWMGIIYPGDSDTRYSPSFQGQVTISADKSISTAYLQWSSLKASDTAMYFCARGRTFYYDSSDYFDYWGQGTLVTVSS VL: DIQMTQSPSSVSASVGDRVTITCRASQGISSWLAWYQQKPGKAPKLLIYAASSLQRGVPSRFSGSGSGTDFTLTISSLQPEDFATYFCQQADRFPRTFGQGTKLEIK
12 | 2.3 | 2.54 | 2.42 | V48 (antibody, V domains shown) VH: EVQLVQSGAEVKKPGESLKISCKGSGYSFGSYWIAWVRQMPGKGLEWMGIIYPGDSDVRYSPSFQGQVTISADKSISTAYLQWSSLKASDTAMYFCARMRTFYYDSSDYFDYWGQGTLVTVSS VL: DIQMTQSPSSVSASVGDRVTITCRASQGISSWLAWYQQKPGKAPKLLIYAASSLQTGVPSRFSGSGSGTDFTLTISSLQPEDFATYFCQQADSLPRTFGQGTKLEIK
13 | 3.39 | 4.16 | 4.1 | V50 (antibody, V domains shown) VH: EVQLVQSGAEVKKPGESLKISCKGSGYSFGSYWIAWVRQMPGKGLEWMGVIYPGDSDTRYSPSFQGQVTISADKSISTAYLQWSSLKASDTAMYFCARQRTFYYDSSDYLDYWGQGTLVTVSS VL: DIQMTQSPSSVSASVGDRVTITCRASQGISSWLAWYQQKPGKAPKLLIYAASSRQNGVPSRFSGSGSGTDFTLTISSLQPEDFATYFCQQADSLPRTFGQGTKLEIK
14 | 5.02 | 6.58 | 6.51 | V49 (antibody, V domains shown) VH: EVQLVQSGAEVKKPGESLKISCKGSGYSFNSYWIAWVRQMPGKGLEWMGTIYPGDSDTRLSPSFQGQVTISADKSISTAYLQWSSLKASDTAMYFCARSRTFYYDSSDYFDYWGQGTLVTVSS VL: DIQMTQSPSSVSASVGDRVTITCRASQGISSWLAWYQQKPGKAPKLLIYAASSRQNGVPSRFSGSGSGTDFTLTISSLQPEDFATYFCQQADSYPRTFGQGTKLEIK
15 | 0.66 | 1.17 | 1.25 | V53 (antibody, V domains shown) VH: EVQLVQSGAEVKKPGESLKISCKGSGYSFTSYWIAWVRQMPGKGLEWMGIIYPGDSDTRYSPHFQGQVTISADKSISTAYLQWSSLKASDTAMYFCARQRTFYYDSSDYFDYWGQGTLVTVSS VL: DIQMTQSPSSVSASVGDRVTITCRASQGISSWLAWYQQKPGKAPKLLIYAASSLQNGVPSRFSGSGSGTDFTLTISSLQPEDFATYFCQQADSFPRTFGQGTKLEIK
16 | 1.83 | 3.18 | 2.81 | V51 (antibody, V domains shown) VH: EVQLVQSGAEVKKPGESLKISCKGSGYSFTSYWIAWVRQMPGKGLEWMGIIYPGDSDVRYSPSFQGQVTISADKSISTAYLQWSSLKASDTAMYFCARGRTFYYDSSDYFDNWGQGTLVTVSS VL: DIQMTQSPSSVSASVGDRVTITCRASQGISSWLAWYQQKPGKAPKLLIYAASSRQNGVPSRFSGSGSGTDFTLTISSLQPEDFATYFCQQADSFPRTFGQGTKLEIK
17 | 3.35 | 3.63 | 3.26 | V60 (antibody, V domains shown) VH: EVQLVQSGAEVKKPGESLKISCKGSGYHFTSYWIAWVRQMPGKGLEWMGIIYPGDSDVRYSPSFQGQVTISADKSISTAYLQWSSLKASDTAMYFCARQRTFYYDSSDYSDYWGQGTLVTVSS VL: DIQMTQSPSSVSASVGDRVTITCRASQGISSWLAWYQQKPGKAPKLLIYAASSLQRGVPSRFSGSGSGTDFTLTISSLQPEDFATYFCGQADSFPRTFGQGTKLEIK
